What was measured:
[1] = biological target: T1, human IL-23 (human, UniProt Q9NPF7 20-189; P29460 23-328); assay: blocking ELISA (Example 9): purified antibody pre-incubated with endogenous human IL-23 (3.5 ng/ml, from stimulated dendritic cells), binding to plate-coated recombinant human IL-23 receptor detected with biotinylated anti-human IL-12; 1% BSA
T1 construct: Heterodimer of p19 and p40; also called hIL-23; recombinant human IL-23
T1 sequence 1: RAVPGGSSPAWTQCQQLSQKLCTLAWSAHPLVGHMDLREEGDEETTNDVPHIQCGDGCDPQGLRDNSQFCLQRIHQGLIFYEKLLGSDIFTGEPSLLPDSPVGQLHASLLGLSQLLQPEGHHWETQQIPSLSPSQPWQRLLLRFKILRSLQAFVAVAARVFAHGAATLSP
T1 sequence 2: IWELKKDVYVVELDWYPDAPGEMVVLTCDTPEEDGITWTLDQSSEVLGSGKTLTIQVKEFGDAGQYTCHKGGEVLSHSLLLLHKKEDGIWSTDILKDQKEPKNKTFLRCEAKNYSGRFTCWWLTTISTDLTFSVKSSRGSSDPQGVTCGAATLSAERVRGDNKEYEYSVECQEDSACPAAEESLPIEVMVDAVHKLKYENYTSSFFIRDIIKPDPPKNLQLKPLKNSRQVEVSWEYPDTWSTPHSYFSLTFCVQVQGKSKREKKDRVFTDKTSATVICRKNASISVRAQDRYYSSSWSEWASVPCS
Method: Recombinant human IL-23 Receptor (R&D systems 1400-IR-050) was coated onto 96 well plates at a concentration of 1 μg/ml. Endogenous human IL-23 at 3.5 ng/ml final, was pre incubated for 1 hour with a titration of purified antibody material before being added to the pre-coated plates. Detection was performed with biotinylated anti-human IL12 (R&D systems BAF-219) followed by Streptavidin-HRP (GE Healthcare RPN 4401). This neutralisation ELISA used 1% BSA.

[2] = biological target: T1, human IL-23; assay: blocking ELISA, optimised protocol (Example 6): antibody pre-incubated with constant human IL-23, binding to plate-coated human IL-23R Fc chimera detected with biotinylated anti-human IL-12, OD450; purified antibody
Method: Optimised protocol: Plates were coated with human IL23R Fc chimera at […] (phosphate buffered saline). 50 μl/well of this mixture was incubated overnight at 4° C. The plates were then washed three times with Phosphate Buffered Saline with 0.05% Tween 20 (PBST). Plates were blocked with 4% skim milk powder (Fluka BioChemika #70166) PBST 100 μl/well for a minimum of 1 hour at room temperature. The plates were then washed three times with Phosphate Buffered Saline+0.05% Tween 20 (PBST). Various concentrations of antibody were incubated in a separate plate with a constant concentration of IL-23 for 1 hour at room temperature. 50 ul of each mixture were transferred to the assay plate and incubated at RT for 1 hr. They were then washed three times with Phosphate Buffered Saline+0.05% Tween 20 (PBST). Bound IL23 was detected by anti human IL12 Biotin labelled Ab (R&D systems BAF219) diluted to 100 ng/ml in 4% skim milk powder (Fluka BioChemika #70166) PBST. 50 μl/well of the biotinylated antibody was added and incubated at RT for 1 hour. The plates were then washed three times with Phosphate Buffered Saline+0.05% Tween 20 (PBST). SA HRP (GE healthcare RPN4401) was diluted 1/4000 in 4% skim milk powder (Fluka BioChemika #70166) PBS, 50 μl/well was added to the plates. […] The plate was read at OD450 nm using the SOftmaxPRO versamax plate reader.

[3] = biological target: T1, human IL-23; assay: blocking ELISA (Example 10): purified antibody pre-incubated with endogenous human IL-23 (5 ng/ml), binding to plate-coated recombinant human IL-23 receptor detected with biotinylated anti-human IL-12; 25% human pooled AB serum
Method: Recombinant human IL-23 Receptor (R&D systems 1400-IR-050) was coated onto 96 well plates at a concentration of 1 μg/ml. Endogenous human IL-23 at 5 ng/ml final, was pre incubated with a titration of purified mAbs before being added to the pre-coated plates. Detection was performed with biotinylated anti-human IL12 (R&D systems BAF-219), followed by Streptavidin-HRP (GE Healthcare RPN 4401). This neutralisation ELISA used 25% human pooled AB type serum. 8C92H₆, HC1LC1, and A3M0 retain their activity in human serum and inhibit binding of endogenous human IL-23 binding to human IL-23 receptor.

B1: murine mAb 8C9 2H6 (antibody, V domains shown)
VH: QVQLQQSGAELARPGTSVKLSCKASGYTFTSYGITWVKQRTGQGLEWIGENYPRSGNTYYNEKFKGKATLTADKSSSTAYMELRSLTSEDSAVYFCARCEFISTVVAPYYYALDYWGQGTSVTVSS
VL: DIVLTQSPASLAVSLGQKATISCKASKKVTIFGSISALHWYQQKPGQPPKLIYNGAKLESGVSARFSDSGSQNRSPFGNQLSFTLTIDPVEADDAATYYCLQNKEVPYTFGGGTKLEIK
notes: Murine hybridoma antibody; also called 8C92H6 (mouse parental); murine 8C92H6 mAb
- IC50 (read off the curve) [1]: ~0.05 µg/mL

B2: A3N2 (antibody, human IgG1, kappa, V domains shown)
VH: QVQLVQSGAEVKKPGSSVKVSCKASGYTFTSYGITWVRQAPGQGLEWMGENYPRSGNTYYNEKFKGRVTITADKSTSTAYMELSSLRSEDTAVYYCARSEFISTVVAPYYYALDYWGQGTLVTVSS
VL: DIVMTQTPLSLSVTPGQPASISCKASKKVTIFGSISALHWYLQKPGQPPQLIYNGAKLESGVSDRFSDSGSGTDFTLKISRVEAEDVGVYYCLQNKEVPYTFGGGTKVEIKR
- IC50 (read off the curve) [2]: ~0.9 nM

B3: A3M0 (antibody, human IgG1, kappa, V domains shown)
VH: QVQLVQSGAEVKKPGSSVKVSCKASGYTFTSYGITWVRQAPGQGLEWMGENYPRSGNTYYNEKFKGRVTITADKSTSTAYMELSSLRSEDTAVYYCARSEFISTVVAPYYYALDYWGQGTLVTVSS
VL: DIVMTQSPDSLAVSLGERATINCKASKKVTIFGSISALHWYQQKPGQPPKLIYNGAKLESGVPDRFSGSGSGTDFTLTISSLQAEDVAVYYCLQNKEVPYTFGGGTKVEIKR
notes: Humanised, human gamma1 and kappa constant regions; also called A3M0 (humanised)
- IC50 (read off the curve) [3]: ~0.02 µg/mL
